One assay addresses T1, S100A9 (human) (UniProt P06702).
T1 sequence (looked up): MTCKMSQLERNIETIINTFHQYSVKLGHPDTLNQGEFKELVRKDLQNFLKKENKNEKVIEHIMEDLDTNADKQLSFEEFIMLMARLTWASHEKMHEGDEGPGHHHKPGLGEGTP
The assay can be described thus: cell-based or functional assay.

Assay [1] has as its target apoptosis-associated speck-like protein containing a caspase-recruitment domain (ASC) (human) (UniProt Q9ULZ3). The assay can be described thus: cell-based or functional assay.

A value given as a limit tells only on which side of the number the result lay.

Sequence of apoptosis-associated speck-like protein containing a caspase-recruitment domain (ASC) (human) (Q9ULZ3 whole entry, the tested form may be a part): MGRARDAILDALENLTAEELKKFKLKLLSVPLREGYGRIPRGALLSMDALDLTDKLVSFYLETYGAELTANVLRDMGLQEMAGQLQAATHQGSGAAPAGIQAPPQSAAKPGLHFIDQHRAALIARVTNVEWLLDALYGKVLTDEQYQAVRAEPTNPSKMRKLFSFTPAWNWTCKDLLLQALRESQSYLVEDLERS

On to “S100A9 high-affinity chimeric (CD33-IgG1) decoy receptor (from UniProt P20138 18-259) (Fc fusion)”, for which, in the assay with S100A9 (human), the colony-forming capacity of MDS BM-MNC was less than 6.6 fold; the reduction of the fraction of pyroptotic cells, CD33+ cells (MDS BM-MNC in autologous BM plasma) amounted to 68%; the reduction of the fraction of pyroptotic cells, CD71+ cells (MDS BM-MNC in autologous BM plasma) turned out to be 64%; the reduction of the fraction of pyroptotic cells, progenitor cells (MDS BM-MNC in autologous BM plasma) came out at 23%. The molecule further came in with a reduction of the fraction of pyroptotic cells, stem cells (MDS BM-MNC in autologous BM plasma) with S100A9 (human) of 44%.

B1: pyrin domain-only protein (POP)-1 (protein, UniProt Q8WXC3 1-89, looked up)
chain: MGTKREAILKVLENLTPEELKKFKMKLGTVPLREGFERIPRGALGQLDIVDLTDKLVASYYEDYAAELVVAVLRDMRMLEEAARLQRAA
For the molecule B1, the NLRP3 activation, as measured by ASC oligomerization (flow cytometry, U2AF1-S34F cells transfected with POP-1) in assay [1] is 40 % reduction.

For the origin of these results see patent publication US20180050011A1.
